Data published in PMC3734082 (The Journal of Cell Biology, 2013).

Columns and labels:
MBP-CHC(1–1074)-His6 = target: T1, MBP-CHC(1–1074)-His6 (UniProt Q00610 1-1074); experiment: pull-down
T1 sequence (looked up): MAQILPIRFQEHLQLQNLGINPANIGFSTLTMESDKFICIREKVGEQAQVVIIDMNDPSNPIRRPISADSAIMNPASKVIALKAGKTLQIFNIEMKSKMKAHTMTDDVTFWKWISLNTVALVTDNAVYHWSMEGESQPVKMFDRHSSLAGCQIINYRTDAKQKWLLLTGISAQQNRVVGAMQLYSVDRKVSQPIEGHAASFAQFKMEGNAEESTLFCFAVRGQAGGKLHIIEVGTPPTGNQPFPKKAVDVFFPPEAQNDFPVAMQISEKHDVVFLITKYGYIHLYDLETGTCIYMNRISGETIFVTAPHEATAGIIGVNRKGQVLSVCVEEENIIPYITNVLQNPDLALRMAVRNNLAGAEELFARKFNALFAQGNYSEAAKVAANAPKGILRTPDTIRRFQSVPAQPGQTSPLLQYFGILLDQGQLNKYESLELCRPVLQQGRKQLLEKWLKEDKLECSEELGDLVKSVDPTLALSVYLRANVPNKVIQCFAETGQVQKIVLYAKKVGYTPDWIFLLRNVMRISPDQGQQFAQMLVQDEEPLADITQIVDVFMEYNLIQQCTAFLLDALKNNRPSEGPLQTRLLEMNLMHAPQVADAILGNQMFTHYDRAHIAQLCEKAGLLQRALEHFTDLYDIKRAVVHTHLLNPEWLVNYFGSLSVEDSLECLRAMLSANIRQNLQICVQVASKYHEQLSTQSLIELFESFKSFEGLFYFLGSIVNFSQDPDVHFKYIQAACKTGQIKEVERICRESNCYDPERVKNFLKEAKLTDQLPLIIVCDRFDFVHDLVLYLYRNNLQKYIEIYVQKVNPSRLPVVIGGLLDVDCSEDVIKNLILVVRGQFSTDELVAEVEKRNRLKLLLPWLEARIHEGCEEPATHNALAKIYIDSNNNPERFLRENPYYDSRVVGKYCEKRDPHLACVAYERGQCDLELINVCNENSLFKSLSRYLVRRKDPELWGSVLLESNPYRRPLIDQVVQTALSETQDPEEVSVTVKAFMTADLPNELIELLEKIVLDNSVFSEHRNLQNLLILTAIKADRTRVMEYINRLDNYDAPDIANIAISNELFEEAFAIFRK

[1] = target: T2, MBP-CHC(1–1074)-His6 C+ mutant (UniProt Q00610 1-1074, T87A | Q89A | K96E | K98E); experiment: pull-down
T2 sequence (looked up): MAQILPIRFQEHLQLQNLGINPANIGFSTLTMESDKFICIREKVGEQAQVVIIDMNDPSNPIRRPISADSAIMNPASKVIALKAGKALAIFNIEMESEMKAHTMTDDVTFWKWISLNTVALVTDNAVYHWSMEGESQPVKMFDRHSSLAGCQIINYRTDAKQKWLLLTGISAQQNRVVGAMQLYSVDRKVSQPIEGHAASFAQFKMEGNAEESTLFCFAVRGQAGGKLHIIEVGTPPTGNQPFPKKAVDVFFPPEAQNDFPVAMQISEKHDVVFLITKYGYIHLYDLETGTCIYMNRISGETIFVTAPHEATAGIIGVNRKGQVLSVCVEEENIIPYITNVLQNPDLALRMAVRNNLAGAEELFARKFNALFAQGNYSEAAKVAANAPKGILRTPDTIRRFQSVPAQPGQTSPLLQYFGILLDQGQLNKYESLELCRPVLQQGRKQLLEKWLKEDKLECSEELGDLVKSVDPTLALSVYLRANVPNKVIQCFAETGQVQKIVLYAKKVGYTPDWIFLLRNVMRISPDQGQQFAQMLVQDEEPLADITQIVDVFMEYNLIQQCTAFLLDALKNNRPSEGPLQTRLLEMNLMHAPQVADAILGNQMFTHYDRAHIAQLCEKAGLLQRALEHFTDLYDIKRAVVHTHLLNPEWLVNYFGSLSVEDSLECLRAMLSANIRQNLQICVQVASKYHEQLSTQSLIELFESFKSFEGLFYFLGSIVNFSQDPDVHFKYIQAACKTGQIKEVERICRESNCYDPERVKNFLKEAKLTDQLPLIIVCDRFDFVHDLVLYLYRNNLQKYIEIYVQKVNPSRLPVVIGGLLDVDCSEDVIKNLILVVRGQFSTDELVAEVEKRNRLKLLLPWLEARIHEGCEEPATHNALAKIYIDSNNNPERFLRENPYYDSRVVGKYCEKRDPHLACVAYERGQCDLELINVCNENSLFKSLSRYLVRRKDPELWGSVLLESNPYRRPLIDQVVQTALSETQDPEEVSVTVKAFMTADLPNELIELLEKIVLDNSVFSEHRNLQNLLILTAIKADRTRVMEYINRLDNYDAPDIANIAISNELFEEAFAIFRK

B1: GST-TACC3-His6, phosphorylated with Aurora A/TPX2 (natural protein)
chain: not shown
modifications: phosphorylated in vitro with Aurora A/TPX2 (phosphoserine at 558, pS558)
binding result (MBP-CHC(1–1074)-His6): binds
binding result [1]: binds
